Consider two proteins from paper PMC10762164, “Lipid nanodisc scaffold and size alter the structure of a pentameric ligand-gated ion channel” (Nature Communications, 2024).

Data set [1] deals with the molecule itself. As to the kind of experiment: cryo-EM structure; single particle cryo-EM of ELIC or ELIC5 in SMA, saposin, spMSP1D1 or spNW15 nanodiscs with 2:1:1 POPC:POPE:POPG; 10 mM HEPES pH 7.5, 100 mM NaCl; with 50 mM propylamine or apo; C5 symmetry in 3D classification and refinement.
The data set “cryo-EM structure” concerns the molecule itself. The experiment in a line: cryo-EM structure.

Substitutions are numbered along the chain they refer to. Numbers in names are those of the source.

B1: Erwinia ligand-gated ion channel (ELIC), wild type (natural protein, UniProt P0C7B7 1-321, looked up)
chain: APADNAADARPVDVSVSIFINKIYGVNTLEQTYKVDGYIVAQWTGKPRKTPGDKPLIVENTQIERWINNGLWVPALEFINVVGSPDTGNKRLMLFPDGRVIYNARFLGSFSNDMDFRLFPFDRQQFVLELEPFSYNNQQLRFSDIQVYTENIDNEEIDEWWIRKASTHISDIRYDHLSSVQPNQNEFSRITVRIDAVRNPSYYLWSFILPLGLIIAASWSVFWLESFSERLQTSFTLMLTVVAYAFYTSNILPRLPYTTVIDQMIIAGYGSIFAAILLIIFAHHRQAMGVEDDLLIQRCRLAFPLGFLAIGCVLVIRGITL
notes: Erwinia ligand-gated ion channel (ELIC), a pentameric ligand-gated ion channel, from plasmid pET-26-MBP-ELIC; Homopentamer; also called WT ELIC
For B1, the binding result in data set [1] is on record as “binds”.

B2: ELIC5 (P254G/C300S/V261Y/G319F/I320F), non-desensitizing mutant of ELIC (natural protein)
chain: B1 chain with P253G, V260Y, C299S, G318F, I319F
On to B2, for which, in “cryo-EM structure”, the binding result is given as “binds”.
